# IntAct's records for PubMed 10984058
# B1: Myosin-2 (Saccharomyces cerevisiae), P19524 (parent)
# chain: MSFEVGTRCWYPHKELGWIGAEVIKNEFNDGKYHLELQLEDDEIVSVDTKDLNNDKDQSLPLLRNPPILEATEDLTSLSYLNEPAVLHAIKQRYSQLNIYTYSGIVLIATNPFDRVDQLYTQDMIQAYAGKRRGELEPHLFAIAEEAYRLMKNDKQNQTIVVSGESGAGKTVSAKYIMRYFASVEEENSATVQHQVEMSETEQKILATNPIMEAFGNAKTTRNDNSSRFGKYLEILFDKDTSIIGARIRTYLLERSRLVYQPPIERNYHIFYQLMAGLPAQTKEELHLTDASDYFYMNQGGDTKINGIDDAKEYKITVDALTLVGITKETQHQIFKILAALLHIGNIEIKKTRNDASLSADEPNLKLACELLGIDAYNFAKWVTKKQIITRSEKIVSNLNYSQALVAKDSVAKFIYSALFDWLVENINTVLCNPAVNDQISSFIGVLDIYGFEHFEKNSFEQFCINYANEKLQQEFNQHVFKLEQEEYVKEEIEWSFIEFNDNQPCIDLIENKLGILSLLDEESRLPAGSDESWTQKLYQTLDKSPTNKVFSKPRFGQTKFIVSHYALDVAYDVEGFIEKNRDTVSDGHLEVLKASTNETLINILEGLEKAAKKLEEAKKLELEQAGSKKPGPIRTVNRKPTLGSMFKQSLIELMNTINSTNVHYIRCIKPNADKEAWQFDNLMVLSQLRACGVLETIRISCAGFPSRWTFEEFVLRYYILIPHEQWDLIFKKKETTEEDIISVVKMILDATVKDKSKYQIGNTKIFFKAGMLAYLEKLRSNKMHNSIVMIQKKIRAKYYRKQYLQISQAIKYLQNNIKGFIIRQRVNDEMKVNCATLLQAAYRGHSIRANVFSVLRTITNLQKKIRKELKQRQLKQEHEYNAAVTIQSKVRTFEPRSRFLRTKKDTVVVQSLIRRRAAQRKLKQLKADAKSVNHLKEVSYKLENKVIELTQNLASKVKENKEMTERIKELQVQVEESAKLQETLENMKKEHLIDIDNQKSKDMELQKTIENNLQSTEQTLKDAQLELEDMVKQHDELKEESKKQLEELEQTKKTLVEYQTLNGDLQNEVKSLKEEIARLQTAMSLGTVTTSVLPQTPLKDVMGGGASNFNNMMLENSDLSPNDLNLKSRSTPSSGNNHIDSLSVDRENGVNATQINEELYRLLEDTEILNQEITEGLLKGFEVPDAGVAIQLSKRDVVYPARILIIVLSEMWRFGLTKQSESFLAQVLTTIQKVVTQLKGNDLIPSGVFWLANVRELYSFVVFALNSILTEETFKNGMTDEEYKEYVSLVTELKDDFEALSYNIYNIWLKKLQKQLQKKAINAVVISESLPGFSAGETSGFLNKIFANTEEYTMDDILTFFNSIYWCMKSFHIENEVFHAVVTTLLNYVDAICFNELIMKRNFLSWKRGLQLNYNVTRLEEWCKTHGLTDGTECLQHLIQTAKLLQVRKYTIEDIDILRGICYSLTPAQLQKLISQYQVADYESPIPQEILRYVADIVKKEAALSSSGNDSKGHEHSSSIFITPETGPFTDPFSLIKTRKFDQVEAYIPAWLSLPSTKRIVDLVAQQVVQDGH
# partner: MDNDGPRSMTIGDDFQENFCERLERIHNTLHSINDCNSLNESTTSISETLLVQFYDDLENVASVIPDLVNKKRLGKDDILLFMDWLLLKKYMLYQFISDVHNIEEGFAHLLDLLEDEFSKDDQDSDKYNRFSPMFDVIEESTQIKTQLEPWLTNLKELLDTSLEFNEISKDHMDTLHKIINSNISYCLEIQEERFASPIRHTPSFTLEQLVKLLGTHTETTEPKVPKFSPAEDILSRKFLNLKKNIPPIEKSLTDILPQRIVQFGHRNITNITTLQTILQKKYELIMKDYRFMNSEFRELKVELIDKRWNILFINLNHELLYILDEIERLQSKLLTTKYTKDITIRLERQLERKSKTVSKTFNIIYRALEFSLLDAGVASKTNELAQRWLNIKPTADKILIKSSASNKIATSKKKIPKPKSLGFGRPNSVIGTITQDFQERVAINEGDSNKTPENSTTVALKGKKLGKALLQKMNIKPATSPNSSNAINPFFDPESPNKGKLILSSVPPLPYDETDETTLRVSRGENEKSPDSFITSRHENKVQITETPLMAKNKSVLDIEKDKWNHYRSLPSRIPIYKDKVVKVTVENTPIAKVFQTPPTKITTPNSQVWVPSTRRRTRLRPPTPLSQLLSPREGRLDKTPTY
# Variants of: B1
# Conditions: with kar9_yeast KAR9, P32526
row,effect of a mutation on the interaction,Variant
1,disrupting interaction strength,E1168K;N1254D
2,disrupting interaction strength,Y1161F;N1171Y;L1413S;I1453V;I1498M
